Laboratory results as given in the supplement of paper PMC9732359.
± gives the uncertainty stated by the source.

Test: protein stability index of a GFP-peptide fusion (yeast GPS) (PSI 1-4); higher = more stable; sorted into four equal gates, so the index is relative within each strain
Method in brief: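 Peptides tiling yeast proteins in 17-residue segments were fused downstream of GFP, with Cherry expressed from the same plasmid. As a pooled library in yeast, mid-log cultures grown in leucine-free medium were sorted into four equal gates by GFP/Cherry fluorescence ratio. Gate plasmids were PCR-amplified and Illumina-sequenced, and barcodes linked reads to strains. Each peptide received a protein stability index equal to the sum of each gate's read frequency times its gate number.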

Row | Sequence | protein stability index (doa10∆) | protein stability index (pdr5∆) | protein stability index (san1∆) | protein stability index (ubr1∆)
1 | APDGSASISLPNHIPSV [SWP82] | 3.36 ± 0.11 | 2.54 ± 0.068 | 2.77 ± 0.097 | 3.3 ± 0.044
2 | NNSNNNNIIRIQQLISQ [SNF11] | 2.25 ± 0.06 | 2.39 ± 0.075 | 2.54 ± 0.08 | 2.69 ± 0.046
3 | KDGLKLVGSWKKDRATG [RPO21] | 3.58 ± 0.2 |  | 3.33 ± 0.15 | 
4 | LAVTNLLIISCIIFITF [YML031W/NDC1] | 1.34 ± 0.034 | 1.53 ± 0.034 | 1.42 ± 0.061 | 1.55 ± 0.03
5 | NGVRALFHSCTRIQYVD [GRR1] | 2.08 ± 0.088 | 2.31 ± 0.055 | 1.86 ± 0.068 | 2.59 ± 0.051
6 | AIDHLKAELEKQKSWVP [YIL149C/MLP2] | 3.05 ± 0.076 | 2.83 ± 0.073 | 2.98 ± 0.11 | 2.91 ± 0.051
7 | IRGILMASGSTTFTKVA [PRP8] | 2.76 ± 0.063 | 2.02 ± 0.1 | 2.02 ± 0.16 | 2.15 ± 0.088
8 | YDPKDALKNACNSIINK [RPB11] | 3.32 ± 0.24 | 3.23 ± 0.14 | 3.2 ± 0.084 | 3.37 ± 0.15
9 | VEFKLPKELVPSHEKLK [CDC53] | 2.37 ± 0.054 | 2.24 ± 0.045 | 2.24 ± 0.071 | 2.08 ± 0.045
10 | DTSLCINGEPSIHVNRV [RRI1] | 2.99 ± 0.081 | 3.04 ± 0.073 | 2.99 ± 0.053 | 3.04 ± 0.05
11 | YMKFSNKYLELCKLASN [RRI2] | 1.64 ± 0.05 | 1.87 ± 0.039 | 1.57 ± 0.092 | 1.76 ± 0.037
12 | ESRSFSPIPFPPLTYKN [PRP8] | 3.04 ± 0.074 | 3 ± 0.08 | 2.6 ± 0.058 | 2.62 ± 0.047
13 | TSPQYIPSPLSSTKPPG [NUT1] | 2.51 ± 0.039 | 2.42 ± 0.034 | 2.4 ± 0.048 | 2.45 ± 0.029
14 | IRLSKILEDDFAVALKN [CDC53] | 3.19 ± 0.15 | 3.16 ± 0.14 | 3.04 ± 0.072 | 3.04 ± 0.08
15 | GLIAARRTGLLRGSQKT [RPL2A] | 3.04 ± 0.12 | 3.08 ± 0.11 | 2.88 ± 0.11 | 2.78 ± 0.11
16 | AKFRLILIESRIHRLAR [RPS13] | 1.52 ± 0.099 | 1.97 ± 0.18 | 1.7 ± 0.18 | 2.5 ± 0.15
17 | KGYVFKISGGNDKQGFP [RPS6A] | 2.62 ± 0.068 | 2.89 ± 0.071 | 2.99 ± 0.052 | 3 ± 0.054
18 | TQGGNVNLDNTAVGKAA [RPT5] | 3.11 ± 0.053 | 3.28 ± 0.052 | 3.277 ± 0.032 | 3.17 ± 0.038
19 | KPSPIDSGIGSNGSGIV [CSL4] | 3.17 ± 0.06 | 2.89 ± 0.042 | 2.94 ± 0.04 | 3.1 ± 0.046
20 | IPPPMPKNQQYRAFGSI [MED7] | 2.04 ± 0.083 | 2.31 ± 0.093 | 2.42 ± 0.1 | 2.04 ± 0.071
21 | LFSKNRNEVLESMDFLV [YCS4] | 2.08 ± 0.05 | 2.19 ± 0.066 | 2.43 ± 0.076 | 2.62 ± 0.052
22 | KNDDNSCRNPEHTDVID [YIL149C/MLP2] | 3.03 ± 0.15 | 2.75 ± 0.099 | 2.98 ± 0.093 | 2.97 ± 0.086
23 | RRRDGVFLYFEDNAGVI [RPL23A] | 2.68 ± 0.13 | 2.83 ± 0.069 | 2.37 ± 0.11 | 2.9 ± 0.056
24 | YVKDARKDTVSREVLRY [RPC40] | 3.64 ± 0.13 | 3.2 ± 0.14 | 3.33 ± 0.071 | 3.21 ± 0.11
25 | GRNGSNGNDESSEYETI [NUT1] | 3.13 ± 0.13 | 3.34 ± 0.11 | 3.09 ± 0.086 | 3 ± 0.12
26 | KKKGLDENTSGKISKPR [PRP28] | 3.5 ± 0.091 | 3.23 ± 0.14 | 3.52 ± 0.065 | 3.45 ± 0.099
27 | SAIIENAFRKEELLLKD [GAL11] |  | 1.14 ± 0.16 |  | 1.18 ± 0.22

Row | Sequence | protein stability index (doa10∆) | protein stability index (pdr5∆) | protein stability index (san1∆) | protein stability index (ubr1∆)
28 | EYKKHFPPNLEKGENPS [UBP6] | 2.9 ± 0.097 | 2.76 ± 0.055 | 2.42 ± 0.073 | 1.93 ± 0.053
29 | IERDSLVDDENEPSQSL [BRN1] | 3.27 ± 0.12 | 3.41 ± 0.12 | 3.18 ± 0.082 | 3.2 ± 0.077
30 | KTSNIESVPIYSIDEFF [BRR2] | 2.56 ± 0.062 | 2.58 ± 0.067 | 2.34 ± 0.045 | 2.13 ± 0.083
31 | SLLSLVGHLSILPQQSK [ECM29] | 2.21 ± 0.048 | 2 ± 0.052 | 1.94 ± 0.058 | 1.64 ± 0.027
32 | NSNSNSGSLFGSNNAQT [YGL172W/NUP49] | 2.6 ± 0.13 | 3.24 ± 0.085 | 2.9 ± 0.3 | 3.11 ± 0.11
33 | QRRSWRQYVGQLAPSSV [DIS3] | 2.06 ± 0.077 | 2.45 ± 0.18 |  | 2.36 ± 0.078
34 | KSGIPEFTPADPNLSFE [SSN2] | 2.96 ± 0.091 | 3.04 ± 0.055 | 2.78 ± 0.054 | 3.25 ± 0.062
35 | GRQFCNRLSRIHLYMLT [YLR018C/POM34] | 1.68 ± 0.051 | 1.87 ± 0.05 | 1.69 ± 0.1 | 1.8 ± 0.04
36 | PVENIWADIFAKALDGQ [RPP1A] | 3.13 ± 0.1 | 3.25 ± 0.12 | 2.49 ± 0.23 | 2.62 ± 0.1
37 | FTAEGIVPDLIINPHAI [RPB2] | 2.24 ± 0.069 | 2.36 ± 0.081 | 2.08 ± 0.081 | 2.67 ± 0.082
38 | SDLVNQGIIYAKVNRPA [RPN5] | 2.97 ± 0.15 | 3.66 ± 0.26 | 2.84 ± 0.17 | 
39 | SKEWFQLDDEDFDLLNK [FAS1] | 3.03 ± 0.11 | 3.31 ± 0.1 | 3.28 ± 0.084 | 3.06 ± 0.08
40 | RVNNPNVSLIKIEGVAT [RPL33A] | 2.54 ± 0.077 | 2.62 ± 0.062 | 2.38 ± 0.077 | 2.49 ± 0.048
41 | HVQFRLGNVDAFQLADG [PRP8] | 3.28 ± 0.11 | 2.79 ± 0.084 | 2.47 ± 0.11 | 1.61 ± 0.046
42 | ELTDNMSDFVPIDAGLN [MCD1] | 3.12 ± 0.11 | 2.99 ± 0.1 | 2.74 ± 0.081 | 3.21 ± 0.12
43 | RFMKGRRSKQLINLAKT [RPC82] | 2.56 ± 0.1 | 2.78 ± 0.11 | 2.72 ± 0.074 | 2.62 ± 0.12
44 | EGRLLDNVQANDPAREK [SNF12] | 2.8 ± 0.11 | 3.21 ± 0.065 | 2.96 ± 0.05 | 3.18 ± 0.042
45 | SYVAVLGMGKAVEKTLA [POP7] | 1.75 ± 0.13 | 2.17 ± 0.081 | 1.82 ± 0.11 | 1.61 ± 0.086
46 | RLELAGQLISLLFEDLF [RET1] | 2.65 ± 0.092 | 2.9 ± 0.12 | 2.67 ± 0.082 | 2.91 ± 0.075
47 | CIFGDAFDVDRAKSCGV [RPL1A] | 3.01 ± 0.073 | 2.75 ± 0.084 | 2.57 ± 0.11 | 2.59 ± 0.081
48 | AHMSIGCLHKGKLISNL [YML031W/NDC1] | 2.04 ± 0.079 | 1.9 ± 0.058 | 2.14 ± 0.15 | 1.83 ± 0.065
49 | EHKSQVVLYNYYLGQYY [CSN12] | 2.23 ± 0.12 | 1.81 ± 0.13 | 2.71 ± 0.086 | 2.03 ± 0.055
50 | PTIEYVQCPTVIKLAKY [ARP9] | 1.97 ± 0.047 | 1.87 ± 0.034 | 1.75 ± 0.068 | 1.98 ± 0.032
51 | SVGNLEVVKSLYDRPLK [NAS6] | 3.29 ± 0.19 | 2.89 ± 0.2 | 3.12 ± 0.075 | 3.34 ± 0.1
52 | IEWCSRCNDNLMRSCFY [YJL039C/NUP192] | 3.17 ± 0.089 | 2.68 ± 0.085 | 2.9 ± 0.067 | 2.69 ± 0.083
53 | FIKVVNYNHLLPTRYTL [RPL27A] | 2.34 ± 0.06 | 2.25 ± 0.076 | 2.07 ± 0.098 | 2.18 ± 0.067
